The target in test [1] is HLA-A*02:01. In words: IEDB peptide-MHC binding, purified MHC/direct/fluorescence; filed as Kd, often an IC50 or EC50 that approximates it; ≥ and ≤ were set here for values at or beyond the usual limits of such assays. To be noted: source organism: Reston ebolavirus.
For test [2], the target named is HLA-C*03:03. The description is as above.
In test [3] the target is HLA-A*03:01. The test is described as above.
In test [4] the target is HLA-B*46:01. In words: IEDB peptide-MHC binding, purified MHC/competitive/fluorescence; filed as Kd, often an IC50 or EC50 that approximates it; ≥ and ≤ were set here for values at or beyond the usual limits of such assays.
The target in test [5] is HLA-B*18:01. The test is described as above.
For test [6], the target named is HLA-A*26:01. Described as above.
Test [7] concerns the target HLA-B*27:03. The test is described as above.
Test [8] deals with HLA-B*57:01. The test is described as above.
Test [9] has as its target HLA-B*15:01. In words: IEDB peptide-MHC binding, purified MHC/competitive/fluorescence; ≥ and ≤ were set here for values at or beyond the usual limits of such assays. The settings on record: source organism: Zaire ebolavirus.
Test [10] concerns the target HLA-A*02:01. Described as above. To be noted: source organism: Zaire ebolavirus.
For test [11], the target named is HLA-A*24:02. Described as above. To be noted: source organism: Zaire ebolavirus.
For test [12], the target named is HLA-B*57:01. In words: IEDB peptide-MHC binding, purified MHC/competitive/radioactivity; filed as Kd, often an IC50 or EC50 that approximates it; ≥ and ≤ were set here for values at or beyond the usual limits of such assays.
For test [13], the target named is HLA-A*03:01. In words: IEDB peptide-MHC binding, purified MHC/competitive/fluorescence; ≥ and ≤ were set here for values at or beyond the usual limits of such assays. The settings on record: source organism: Zaire ebolavirus.
In test [14] the target is HLA-A*11:01. The test is described as above. The settings on record: source organism: Zaire ebolavirus.
Test [15] deals with HLA-B*15:01. In words: IEDB peptide-MHC binding, purified MHC/direct/fluorescence; filed as Kd, often an IC50 or EC50 that approximates it; ≥ and ≤ were set here for values at or beyond the usual limits of such assays.
In test [16] the target is HLA-B*27:05. Described as above.
Test [17] deals with HLA-A*29:02. The description is as above.
For test [18], the target named is HLA-A*01:01. Described as above.
The target in test [19] is HLA-B*58:01. The description is as above.
Test [20] has as its target HLA-B*46:01. The test is described as above. The settings on record: source organism: Mycobacterium tuberculosis variant bovis.
For test [21], the target named is HLA-B*08:01. Described as above.
Test [22] addresses HLA-B*18:01. The test is described as above. To be noted: source organism: Mycobacterium tuberculosis variant bovis.
Test [23] has as its target HLA-B*48:01. The test is described as above. To be noted: source organism: Mycobacterium tuberculosis variant bovis.
Test [24] deals with HLA-B*57:01. Described as above.
In test [25] the target is HLA-A*31:01. Described as above.
The target of test [26] is HLA-B*40:01. The description is as above.
The target in test [27] is HLA-A*69:01. Described as above.
Test [28] concerns the target HLA-A*11:01. The test is described as above.
Test [29] addresses HLA-B*51:01. In words: IEDB peptide-MHC binding, purified MHC/competitive/fluorescence; filed as Kd, often an IC50 or EC50 that approximates it; ≥ and ≤ were set here for values at or beyond the usual limits of such assays. To be noted: source organism: Salmonella enterica subsp. enterica serovar Typhi.
Test [30] deals with HLA-B*15:01. The test is described as above.
The target of test [31] is HLA-A*29:02. The description is as above. The settings on record: source organism: Salmonella enterica subsp. enterica serovar Typhi.
For test [32], the target named is HLA-A*02:01. The test is described as above.
The target of test [33] is HLA-A*02:03. Described as above. To be noted: source organism: Salmonella enterica subsp. enterica serovar Typhi.
In test [34] the target is HLA-A*02:11. The test is described as above. To be noted: source organism: Salmonella enterica subsp. enterica serovar Typhi.
Test [35] has as its target HLA-A*03:01. Described as above. The settings on record: source organism: Salmonella enterica subsp. enterica serovar Typhi.
Test [36] addresses HLA-A*02:19. The test is described as above. To be noted: source organism: Salmonella enterica subsp. enterica serovar Typhi.
The target of test [37] is HLA-B*39:01. Described as above. To be noted: source organism: Salmonella enterica subsp. enterica serovar Typhi.
Test [38] has as its target HLA-A*02:12. The test is described as above. The settings on record: source organism: Salmonella enterica subsp. enterica serovar Typhi.
In test [39] the target is HLA-B*15:17. In words: IEDB peptide-MHC binding, purified MHC/direct/fluorescence; filed as Kd, often an IC50 or EC50 that approximates it; ≥ and ≤ were set here for values at or beyond the usual limits of such assays. The settings on record: source organism: Escherichia coli O157:H7.
The target in test [40] is HLA-A*26:01. The description is as above. To be noted: source organism: Escherichia coli O157:H7.
Test [41] addresses HLA-B*44:02. Described as above. To be noted: source organism: Escherichia coli O157:H7.
The mark [42] stands for this setting: source organism: Zaire ebolavirus.
[43] abbreviates: source organism: Dengue virus 2 Jamaica/1409/1983.
Where [44] appears, read: source organism: Mycobacterium tuberculosis variant bovis.
Setting [45] is: source organism: Salmonella enterica subsp. enterica serovar Typhi.
The mark [46] stands for this setting: source organism: Escherichia coli O139:H28 str. E24377A.
Setting [47] is: source organism: Shigella flexneri.
The mark [48] stands for this setting: source organism: Escherichia coli O157:H7.

As to FLSFASLFL, the Kd (commonly the equilibrium constant for the complex coming apart) in [1] is at most 0.001 µM; in [2] (setting [42]), 0.005 µM; in [3] (setting [42]) it was at least 20 µM; in [4] (setting [42]), at least 20 µM; in [5] (setting [42]), at least 20 µM; in test [6] (setting [42]) it was at least 20 µM. In addition, the Kd in test [7] (setting [42]) and in [8] (setting [42]) was at least 20 µM throughout. Moreover, the IC50 (in general, the point on the concentration scale where inhibition reaches its midpoint) in test [9] came out at 8.79 µM; in test [10], 0.0489 µM; in test [11] it was 0.276 µM.

Consider AVFTEENQW, for which, in [12] (source organism: Dengue virus 3 Martinique/1243/1999), the Kd was determined as 0.0495 µM.

As to LGKSYAQMW, in [12] (setting [43]), the Kd was 0.0927 µM.

For the sequence GSSPILSITI, the dissociation constant (Kd) in test [12] (setting [43]) came out at 0.114 µM.

As to ESSPNPTVEA, in test [12] (source organism: Dengue virus 2 Peru/IQT2913/1996), the Kd worked out at 0.323 µM.

For PTAGILARW, in test [12] (source organism: Dengue virus 1 Brazil/97-11/1997), the equilibrium dissociation constant (Kd) amounted to 0.0127 µM.

As to AIGLAWIPY, the IC50 is 1.46 µM in test [9]; at least 245 µM in [10]; at least 166 µM in test [11]; 1.54 µM in test [13]; 61.4 µM in [14].

As to KTKLTDWDF, in test [12] (source organism: Dengue virus 4 Philippines/H241/1956), the dissociation constant Kd was 0.132 µM.

PMQQLTQPL: the Kd in test [15] (setting [44]), in test [16] (setting [44]), in [17] (setting [44]), in [18] (setting [44]), in test [19] (setting [44]) and in test [20] was at least 20 µM in each case. For the same sequence, the Kd in [21] (setting [44]), in test [22], in test [23], in [3] (setting [44]), in test [24] (setting [44]) and in [25] (setting [44]) was at least 20 µM each time. The Kd in [26] (setting [44]), in test [27] (setting [44]) and in test [28] (setting [44]) was at least 20 µM in each case.

On to HVTQHWPQL, for which the Kd in [29], in [30] (setting [45]), in test [31], in test [32] (setting [45]), in [4] (setting [45]) and in test [33] was at least 20 µM throughout. Further, the Kd in [5] (setting [45]), in test [34], in [35], in test [7] (setting [45]), in test [8] (setting [45]) and in test [36] was at least 20 µM each time. Further, the Kd in test [37] is at least 20 µM; in test [38] it was 7.05 µM.

Turning to YVVWLMFSL, the dissociation constant Kd in test [2] (setting [46]) was 2.19 µM; in test [30] (setting [46]) it was at least 20 µM; in test [32] (setting [46]), 0.312 µM; in [6] (setting [46]), at least 20 µM.

As for ITIPIGLYL, the dissociation constant Kd in test [15] (setting [47]) is 2.97 µM; in test [16] (setting [48]), at least 20 µM; in test [18] (setting [48]) it was at least 20 µM; in test [19] (setting [47]) it was 0.0101 µM; in test [39], 0.0018 µM; in test [2] (source organism: Escherichia coli O157:H7 str. EDL933), 0.094 µM. Further, the Kd was at least 20 µM in [21] (setting [48]); at least 20 µM in test [40]; at least 20 µM in [3] (setting [48]); 0.349 µM in test [24] (setting [48]); at least 20 µM in test [25] (setting [48]); at least 20 µM in test [26] (setting [48]). The Kd in test [27] (setting [48]), in test [41] and in test [28] (setting [48]) was at least 20 µM throughout.

For PTAIYTLEY, the Kd in test [17] (source organism: Mycobacterium tuberculosis str. Haarlem) came to 0.006 µM; in [18] (source organism: Mycobacterium tuberculosis), 0.0092 µM.
